# Entries after “also recorded” stand apart in the source; their conditions may differ. Non-standard residues stand in square brackets, D forms with d. Residues, ends and D or L forms follow the SMILES beside them. hArg = N=C(N)NCCCC[C@H](N)C(=O)O; Orn = NCCC[C@H](N)C(=O)O
# Experiments:
# [1] = target: expanded MJD CAG78 RNA; assay: Isothermal titration calorimetry binding assay, expanded CAG RNA; settings: ITC, 25 °C, 20 mM MOPS pH 7.0, 300 mM NaCl; 0.7 mM peptide titrated into 0.5 µM MJD CAG78 RNA; one binding site model; mean ± S.E.M., at least 3 independent experiments
# Protocol: Experiments were carried out using a MicroCal iTC200 isothermal titration calorimeter (GE Healthcare) at 25 °C. Data were analyzed using the Origin® scientific plotting software version 7 (Microcal Software Inc.). All RNAs and peptides were dissolved in binding buffer (20 mM MOPS, pH 7.0; 300 mM NaCl) and 0.7 mM of peptide was titrated into 0.5 µM of RNA for each experiment. The concentration of RNA was estimated with appropriate extinction coefficients at 260 nm on a Nanodrop 2000 (Thermo Scientific). A reference power of 8 μcal/s was used with an initial 0.5 µl of injection of peptide followed by 2 µl for all subsequent titrations points with a 60 sec initial equilibrium delay and 150 sec pause between injections. The samples were stirred at a speed of 1000 rpm throughout the experiment. The thermal titration data were fitted to the ‘one binding site model’ to determine the dissociation constant (KD). Each experiment was repeated at least 3 times with consistent results obtained.
# [2] = tested on: P3V8; assay: ITC; settings: ITC (MicroCal iTC200): 20 mM MOPS pH 7.0, 300 mM NaCl, 25 C; 0.7 mM peptide titrated into 0.5 uM RNA; one-site model; errors are SEM, n>=3
# [3] = tested on: P3 (P3WT); assay: ITC; settings: ITC (MicroCal iTC200): 20 mM MOPS pH 7.0, 300 mM NaCl, 25 C; 0.7 mM peptide titrated into 0.5 uM RNA; one-site model; errors are SEM, n>=3
# [4] = tested on: P3V9; assay: ITC; settings: ITC (MicroCal iTC200): 20 mM MOPS pH 7.0, 300 mM NaCl, 25 C; 0.7 mM peptide titrated into 0.5 uM RNA; one-site model; errors are SEM, n>=3
# [5] = tested on: P3MT2; assay: ITC; settings: ITC (MicroCal iTC200): 20 mM MOPS pH 7.0, 300 mM NaCl, 25 C; 0.7 mM peptide titrated into 0.5 uM RNA; one-site model; errors are SEM, n>=3
# [6] = tested on: P3MT5; assay: ITC; settings: ITC (MicroCal iTC200): 20 mM MOPS pH 7.0, 300 mM NaCl, 25 C; 0.7 mM peptide titrated into 0.5 uM RNA; one-site model; errors are SEM, n>=3
# [7] = tested on: P3V4; assay: ITC; settings: ITC (MicroCal iTC200): 20 mM MOPS pH 7.0, 300 mM NaCl, 25 C; 0.7 mM peptide titrated into 0.5 uM RNA; one-site model; errors are SEM, n>=3
# [8] = tested on: P3MT3; assay: ITC; settings: ITC (MicroCal iTC200): 20 mM MOPS pH 7.0, 300 mM NaCl, 25 C; 0.7 mM peptide titrated into 0.5 uM RNA; one-site model; errors are SEM, n>=3
# [9] = tested on: P3V5; assay: ITC; settings: ITC (MicroCal iTC200): 20 mM MOPS pH 7.0, 300 mM NaCl, 25 C; 0.7 mM peptide titrated into 0.5 uM RNA; one-site model; errors are SEM, n>=3
# [10] = tested on: P3V1; assay: ITC; settings: ITC (MicroCal iTC200): 20 mM MOPS pH 7.0, 300 mM NaCl, 25 C; 0.7 mM peptide titrated into 0.5 uM RNA; one-site model; errors are SEM, n>=3
# [11] = tested on: P3V3; assay: ITC; settings: ITC (MicroCal iTC200): 20 mM MOPS pH 7.0, 300 mM NaCl, 25 C; 0.7 mM peptide titrated into 0.5 uM RNA; one-site model; errors are SEM, n>=3
# [12] = tested on: P3V7; assay: ITC; settings: ITC (MicroCal iTC200): 20 mM MOPS pH 7.0, 300 mM NaCl, 25 C; 0.7 mM peptide titrated into 0.5 uM RNA; one-site model; errors are SEM, n>=3
# [13] = tested on: P3V2; assay: ITC; settings: ITC (MicroCal iTC200): 20 mM MOPS pH 7.0, 300 mM NaCl, 25 C; 0.7 mM peptide titrated into 0.5 uM RNA; one-site model; errors are SEM, n>=3
# [14] = tested on: P3V6; assay: ITC; settings: ITC (MicroCal iTC200): 20 mM MOPS pH 7.0, 300 mM NaCl, 25 C; 0.7 mM peptide titrated into 0.5 uM RNA; one-site model; errors are SEM, n>=3
# [15] = tested on: P3MT1; assay: ITC; settings: ITC (MicroCal iTC200): 20 mM MOPS pH 7.0, 300 mM NaCl, 25 C; 0.7 mM peptide titrated into 0.5 uM RNA; one-site model; errors are SEM, n>=3
# [16] = tested on: P3MT4; assay: ITC; settings: ITC (MicroCal iTC200): 20 mM MOPS pH 7.0, 300 mM NaCl, 25 C; 0.7 mM peptide titrated into 0.5 uM RNA; one-site model; errors are SEM, n>=3
compound,measurement,setting,value
Ac-DGKSKGIAYIEFKGDGKSKGIAYIEFK-NH2 [P3V21],KD,[1],No binding; also recorded: did not show any binding
Ac-DGRSRGIAYIEFK-NH2 [P3V9],Kd,[1],2.34 ± 0.49 µM
"MJD CAA/G78 RNA (expanded, interrupted)",Kd,[2],2.94 µM
CC[C@H](C)[C@H](NC(=O)CNC(=O)[C@H](CCCN)NC(=O)[C@H](CO)NC(=O)[C@H](CCCCN)NC(=O)CNC(=O)[C@H](CC(=O)O)NC(C)=O)C(=O)N[C@@H](C)C(=O)N[C@@H](Cc1ccc(O)cc1)C(=O)N[C@H](C(=O)N[C@@H](CCC(=O)O)C(=O)N[C@@H](Cc1ccccc1)C(=O)N[C@@H](CCCCN)C(N)=O)[C@@H](C)CC [P3V17] (Ac-DGKS[Orn]GIAYIEFK-NH2),KD,[1],No binding
MJD CAG27 RNA (unexpanded),Kd,[2],2.19 µM
CC[C@H](C)[C@H](NC(=O)CNC(=O)[C@H](CCCCN)NC(=O)[C@H](CO)NC(=O)[C@H](CCCCNC(=N)N)NC(=O)CNC(=O)[C@H](CC(=O)O)NC(C)=O)C(=O)N[C@@H](C)C(=O)N[C@@H](Cc1ccc(O)cc1)C(=O)N[C@H](C(=O)N[C@@H](CCC(=O)O)C(=O)N[C@@H](Cc1ccccc1)C(=O)N[C@@H](CCCCN)C(N)=O)[C@@H](C)CC [P3V14] (Ac-DG[hArg]SKGIAYIEFK-NH2),KD,[1],No binding
MJD CAG78 RNA (expanded),Kd,[3],8.37 µM
same,Kd,[4],2.34 µM
same,Kd,[5],101 µM
same,Kd,[6],51.3 µM
same,Kd,[7],4.44 µM
same,Kd,[8],16.6 µM
same,Kd,[9],0.86 µM
same,Kd,[10],2 µM
same,Kd,[11],1.74 µM
same,Kd,[2],0.33 µM
same,Kd,[12],3.67 µM
same,Kd,[13],2.21 µM
same,Kd,[14],23.8 µM
same,Kd,[15],31.3 µM
same,Kd,[16],17.4 µM
Ac-DGKSKGIAYIEFKDGKSKGIAYIEFK-NH2 [P3V20],KD,[1],No binding; also recorded: did not show any binding
CC[C@H](C)[C@H](NC(=O)CNC(=O)[C@H](CCCCN)NC(=O)[C@H](CO)NC(=O)[C@H](CCCN)NC(=O)CNC(=O)[C@H](CC(=O)O)NC(C)=O)C(=O)N[C@@H](C)C(=O)N[C@@H](Cc1ccc(O)cc1)C(=O)N[C@H](C(=O)N[C@@H](CCC(=O)O)C(=O)N[C@@H](Cc1ccccc1)C(=O)N[C@@H](CCCCN)C(N)=O)[C@@H](C)CC [P3V16] (Ac-DG[Orn]SKGIAYIEFK-NH2),KD,[1],No binding
CC[C@H](C)[C@H](NC(=O)CNC(=O)[C@H](CCCCNC(=N)N)NC(=O)[C@H](CO)NC(=O)[C@H](CCCCN)NC(=O)CNC(=O)[C@H](CC(=O)O)NC(C)=O)C(=O)N[C@@H](C)C(=O)N[C@@H](Cc1ccc(O)cc1)C(=O)N[C@H](C(=O)N[C@@H](CCC(=O)O)C(=O)N[C@@H](Cc1ccccc1)C(=O)N[C@@H](CCCCN)C(N)=O)[C@@H](C)CC [P3V15] (Ac-DGKS[hArg]GIAYIEFK-NH2),KD,[1],No binding
